Experiment: label from the status in PepcDB records

Row | Sequence | protein production
1 | MVPHHWASLWNRQLALQTSVRRRLRKEIDLIRFLKATAAADELTGIVGIAAQVIEALGEWGVGLLTLLETVFPPIPSEVILPLAGFLTQQGSMNLILVFVTSTLGAYAGAMLLYWLGYKVGLERSIKLLSKLPLVDREDFEKAAEWFERHGKSAIFFGRLLPGVRSLISLPAGAERMNLATFSVFTVAGTGLWNALLIGAGALLGKQYHLVDQYSRFLNYAVYAGLAALLVWLIIRRVKKRKESTR | failed
2 | MVPHIDGLFLRDVEAVLTAPDRADLPVLNPGLGTWVDKTTVTWFKFNHQLAVTIGDILQRNFHHAWPTYRMIPVVFKASTLCMHTWDSRHTLTVWTQFNLVARTLYRDNMRAMKRRWARGLDKSRWMTTTVWNDLVDMFTEFGPDDVGFMS | failed
3 | MVPRVPQPGIWCPAVTFFDSKTDTLDLASQERYYAYLARSGLTGLVILGTNAEAFLLTREERAQLIATARKAVGPDFPIMAGVGAHSTRQVLEHINDASVAGANYVLVLPPAYFGKATTPPVIKSFFDDVSCQSPLPVVIYNFPGVCNGIDLDSDMITTIARKNPNVVGVKLTCASVGKITRLAATLPPAAFSVFGGQSDFLIGGLSVGSAGCIAAFANVFPKTVSKIYELYKAGKVDQAMELHRKAALAESPCKSGIATTKYAAAIFSAKAAGIEDAEEKLRPRKPYDPPSEAAKQEVRKVMAEVAAIEAGLS | not failed
4 | MVQAHGGRSRAQPLTLSLGAAMTQPPPEKTPAKKHVRLQERRGSNVALMLDVRSLGAVEPICSVNTPREVTLHFLRTAGHPLTRWALQRQPPSPKQLEEEFLKIPSNFVSPEDLDIPGHASKDRYKTILPNPQSRVCLGRAQSQEDGDYINANYIRGYDGKEKVYIATQGPMPNTVSDFWEMVWQEEVSLIVMLTQLREGKEKCVHYWPTEEETYGPFQIRIQDMKECPEYTVRQLTIQYQEERRSVKHILFSAWPDHQTPESAGPLLRLVAEVEESPETAAHPGPIVVHCSAGIGRTGCFIATRIGCQQLKARGEVDILGIVCQLRLDRGGMIQTAEQYQFLHHTLALYAGQLPEEPSP | failed
5 | MVQAQTRDQIVAAADELFYRQGFAQTSFVDISAAVGISRGNFYYHFKTKDEILAEVIRLRLARTAQMLADWQGTGDSPRARIASFIDLMIMNRAKITRYGCPVGSLCTELSKLDHAAQGQANGLFTLFRDWLQRQFAEAGCTTEAPALAMHLLARSQGAATLAQSFHDEGFLRSEVADMHRWLDNTLPMTT | not failed
6 | MVQEPTQDHLIGTTVDGRYTVRSRLASGGMSTVYLATDQRLERDVALKVLHPHLANDPTFLERLSREAKAAASLSHPHIVGVLDQGEDGTIAYLVMEYVKGHTLRDTLNEQGALQPRLALALIDPVIEGLAAAHRSGLIHRDVKPENVLIADDGRIKVGDFGLARAISANTSTGALIGTVAYLAPELVLGQPADARSDIYSAGIMLYEMLTGKQPYAGDSPIQVAYQHVNAAVGRPSDAAPGLAEDLDELVQWCTAVDAENRPVDGTALLTELRHIRTTLTDEDLDRRQAPSQPPGSPAAATAAAALGGPGGNPTEAIPATASPTEMISHQSNPTTIMAAAGSGRPQTAAVGAVNHEVVRQPGKRELKRLERQEIKDRARAAATPSRPLREGNPRRRGIIWTIVIVILATLAASAGWFFGMGPGSPGTVPDVKNKTVAEAQQLLRTAGFQSEPKDVFDDDILAGLAVGTEPESGAEVRKFQPITLFVSKGAQLFALPTLTGGSLDEAKTALNAAEMALGNVTQAFDEKVPAGVVISQDPAKGTEVRHGTPVSLVVSKGPQPIPVPDVRGLAQDAAVKALQDAGLTAVIAPETVNDKTVPKGAVVSQVPANGTLVRGEAVTLTVSKGPKLVKVPSFIGKQADEAEKELKKLGFKVQVNKVLGGFFGTVRDQNPVNTEIPEDSVVTLTVV | failed
7 | MVQHLTAEEIIQYISDAKKSTPIKVYLNGNFEGITYPESFKVFGSEQSKVIFCEADDWKPFYEAYGSQFEDIEIEMDRRNSAIPLKDLTNTNARIEPGAFIREQAIIEDGAVVMMGATINIGAVVGEGTMIDMNATLGGRATTGKNVHVGAGAVLAGVIEPPSASPVIIEDDVLIGANAVILEGVRVGKGAIVAAGAIVTQDVPAGAVVAGTPAKVIKQASEVQDTKKEIVAALRKLND | not failed
8 | MVQLIKKYEDLLCLLDELIKNESTFRWDEFYLERERDVPFFVLAPDEQLVEYVCTGLIESGKVLELGCGPGRNAIYLAENHFEVDVVDLSQKAIDWAMDRANERKASIRFIRENIFNLNVNKASYDLVYDSGCFHHIPPHRRMDYIHLVTTALKPGGHFGLTCFIENGPLGGAAISDLDVYRQQSLQGGLGFTEQKLIQIFDDFAVIEIRKMKEYPNDSSRFGVNGLLTALFQKKKVEKVKLEHHHHHH | failed
9 | MVQLSLSQVHQDQIYRHGERCYPEECCGLLLGKILIGENGHRHWQVVEVQPTENCWGDVEEFQQNNHQGNKLHYFAIDPKVLLSAQKDCRQKGLSIIGIFHSHPHGQPIPSEFDRAIAWPEYIYLIASGLEHHHHHH | failed
10 | MVQTIIDPVILPFNGDDTKSSLLTGGDPPSAAELAAKTVEDQLPREANPTAPAVAPLSLSLEDLKAILATVTKDLSQRLTAGSTS | failed
11 | MVRGDAVIVQAALQDGHWSGRADVLRRVEIPSGLGAWSSVVEDKKQALDLVDRVLSKNPASASAHRTKGAILLFGHPEEAMAEYDAALEIDPNNPAVYAAKTITLIVTGRAREAFSPLQLAHCYVCFGHCARVAEARCSIRTQGAGLRRVALLARSRT | failed
12 | MVRGIRGAITVEEDTPEAIHQATRELLLKMLEANGIQSYEELAAVIFTVTEDLTFAFPAEAARQIGMHRVPLLSAREVPVPGSLPRVIRVLALWNTDTPQDRVRHVYLREAVRLRPDLESAQ | not failed
13 | MVRHRGNKEERQQALRRYLRSNPFATDEELAEKFEVSVPTIRLDRLALGIPEVRERIMAMAQEARSRMRGVTAEELVGELVELQPGVMGISILEITPPMLVQPAGVARGYYLFAQAHSLALATVGAEVVLTSSARVRYRRPVYAGERVVARAMVKVVKDSTCLVSVHSRVNGEIVFKGRYIIITPDAATGGGSA | failed
14 | MVRKQKRARLIYNPTSGQEIMKKNVAEVLDILESFGYETSAFQTTPRADSAKNEAARASQAGFDLVIAAGGDGTINEVVSGIAPLKRRPKVAIIPTGTTNDFARALKIPRGNPVEATKLIGKNQTIHMDIGRAYNDKYFINIAAAGSLTELTYSVPSQLKTMFGYLAYLVKGAELLPRVRNVPVKVFYDHGVFEGEASMIFVALTNSVGGFETIAPDAKLDDGKFTLILVKTANLFELTDLIRLVLTGGRHINHKKIEYIKTSYLKIIPQGNPPKRMMINLDGEYGGDAPIELRNLKNHIEFFANTDEISDDAITLDTEELVLEAIAQKFAREAESLDEMDKTKEQD | not failed
15 | MVRRCETQRGRWDNKVNILKDTDKFGFDLGFQLQESKKRFGPDLGFCIKRFAPPILQMSLEENENGPKPTWQIRSNRETSKAIRSAPPLTFSSFTGVSLGRKLPNNKNPESSKTRQEGFDTVEEGLKGDRGRTSVDRSEYDGG | failed
16 | MVRSCAPHKRKAGRRARLAFGALASHGARENTEVPMRYVLILLLALFGYLLFWPIPVAPVAYHPPETPGFTGDFAENRVLDRAEFVTLPDGEIGPEDLAVMPDGTVYTTSLAGNLYRIDGAVPQLVDRLGGRPLGLKAGPDGALYIADSFRGILRWTAPGEVETVVDQIDGAPVIYANQLDLGRDGTIYFSNSTDRFDPRTLGGTKPTSVMTVWEQSDTGYVARRTPDGRVEKIATGFVYTNGVALSPDEDFLLINETGRARVHRLWLTGDKAGQSEVFLDNLPGYPDNIEAQGDGTYWLAFASPRVPAEALMPYPFLRKVVWRLGPKVRPAPIHRGMLIQFDGTGRILRTVQDPDGRLGITTGGKQVGARFYVMTLDSPGFARMDSADLR | failed
17 | MVRTRLFGTFPHLSRSAQAQRNMTTTYANADPGELEKFSELAHRWWDPNSEFKPLHEINPLRLDWIQSTAPLAGKRVVDVGCGGGILSESMARAGANVKGIDLSRKALRVADLHSLEAGVAVDYEEIAAEALAAREPGSFDVVTCMEMLEHVPDPASVVRACATLVKPGGHVFFSTIHRNAKAYLLAVIGAEYVLNMLPRGTHDYAKFIRPSELAGFARTAGLEPAQLRGLEYNPLTGRYALTHDTSVNYLIATRRPDAP | failed
18 | MVRVDQNLFNEVMYLLDELSQDITVPKNVRKVAQDSKAKLSQENESLDLRCATVLSMLDEMANDPNVPAHGRTDLYTIISKLEALS | not failed
19 | MVSDAALHGKLAVEHASDHLVVLAQADSGPITVDQFKEKLKEVQQEEQLGWLTAIGKYFIGIFQKGGEVFAGFVTGIIPTLVVLMTAFYAVTELVGEERVHGLARGAGRIALTRYTLLPLLAVFFLTNPMAYTFGSFLEEKHKPAFYDAAVSYVHPPLGLFPHINPGEYFVWGGILVALLELEKKGVVVAGYHVKVAIWYAIVGLVVILLKGMLTERITTIMARRQGVEL | failed
20 | MVSEMLSEAGHSVSYLKGGMKAWSEHLEPVKVGDLKDGGEMYQFVRIGKGCLSYMVISNGEAAIIDATRMVNFFIDFAKGKGATITHVFDTHLHADHISGGRVIAEKTKATYWLPPKDAEEVEFDYQPLEEGNDIIIGNTTIKIQPIYSPGHTIGSTSFIVDDQYLLSGDILFIDSIGRPDLAGMAEDWVGDLRKTLYSRYKALSKDLIVLPAHFMIIDELNENGSVGKQLSTLFSENHGLNIADETEFRHLVTDHLPPQPNAYQEIRETNMGKISPDEEKQREMEIGPNRCAIRLEHHHHHH | failed
21 | MVSFDHATLGYITFVLMNFSMLSGAFIFLSKKKQHWIKVHLLVSILTYIFMVWTIWVVR | failed
22 | MVSLLLISLLYLGIMLIAAKISEEIFRRIGLVTFVGPILMGILLGNGVFGVIQINEIISFITSLGIVFLLFLAGAEEFNVENRPNANVFLAVILESIIPFSVILVAIYIIGFKNYLILIVPLAMSSAGPLSRMLMDVKISDNRISNLIFQQVILIEIIFVILFAILLKTSEILITIIEIFLVFAFTIMFGRTLAKILEKIEYYFKAREIEFASLIAIILIIGYLAELYKFNSAISAFFLGILLKDYLKDRPELLERLHAFTYGFFEPLFFLGIGLYVTKINASIILFSLLFFSLIIASKFLAGFISSKILNIKGKINGFATSVKGGVDSSLLLTGLTLGYINEFMYSFSILAISLSALIVPLLFQINFKISNKISESKKVKLSQEVIKLQIKPLYASCEENLRSVISKISERGVRGIVVVNYENKPLGYVSIQTLLEIDPELYESTKACEVPLDEVPIEYDNVKVIDLLRKFRETEKPVIAIINKEGVLVTTVYERELARFLISF | failed
23 | MVSSLSVYYRKLAYHVIESDGFLWVGFKPGMVHFIAKEVWNIRPLTRTDVERYYEEFTVLTQGKGSLYFRIVAHGGFLKEALAYELHGLTVSDDNYLRSLNSGRHVELYPHNEKAYRAIIKGFEQHRIGTVVQATGTGKSYLLARYISDHATERICVFAPNVTILEEIKKAVGFTSPYICYRTFQSLIYYRKNDKQLKADHILIDEFHHFGAEIWGAALQEVIESNPQAYILGTSATPIRPEGMIDTVDLYFEGNLFYELTLPQAWYYRILPVPILVQSAYGLDGELNRLQKRLDRSGCSIRRKEQVQKKLDVARVDFKGALGAPEVIRKFLPKDVCKLLVFCRDLTDLKQMVPEVCGWLTQAGRVIIPFEIHHTQSERINNQILKAFQKESGKLHVLFSVNMLIEGLHVEGIDAVLFLRRTESYIVTLQQLGRCLDAGSGKQPVVLDFVNNLSGKSVYDMMALHMERLACQPSPKGFEGVTSFLTTGFLSDIRLRIEEILTELEPWQIMYERLIEFRKKENDWPSVTEGKLGLWCNTQRMAYKRGRLSEERYKLLESVGFEWNLLDSNWMKEFQSLKVFFATQGRWPKREDGALATWCYTQRERRKKGRLSKERIRVLDEIGFVWSQDLNGEWMKNYEALKIFLDKQQRFPKSAEGYLGEWCSTQRKMRKQGKLSPDRQTLLDRIGFVWSVEQVWRSHLEQLHQFHVQNGRWPGCREGALGRWCTVQRRNYRRGSLSDQKIVQLEQIGFIPLKGDE | failed

From a protein production outcome set (Wang et al. 2014)
